In patent US20240390512A1 (Daiichi Sankyo, published 2024) one finds binding result and Kd data, which are given here for two molecules.

Assay [1] concerns the target T1, human CDH6 (cadherin-6), full-length, on cells (human, UniProt P55285 54-790).
T1 construct: also called hCDH6; full-length hCDH6
T1 sequence: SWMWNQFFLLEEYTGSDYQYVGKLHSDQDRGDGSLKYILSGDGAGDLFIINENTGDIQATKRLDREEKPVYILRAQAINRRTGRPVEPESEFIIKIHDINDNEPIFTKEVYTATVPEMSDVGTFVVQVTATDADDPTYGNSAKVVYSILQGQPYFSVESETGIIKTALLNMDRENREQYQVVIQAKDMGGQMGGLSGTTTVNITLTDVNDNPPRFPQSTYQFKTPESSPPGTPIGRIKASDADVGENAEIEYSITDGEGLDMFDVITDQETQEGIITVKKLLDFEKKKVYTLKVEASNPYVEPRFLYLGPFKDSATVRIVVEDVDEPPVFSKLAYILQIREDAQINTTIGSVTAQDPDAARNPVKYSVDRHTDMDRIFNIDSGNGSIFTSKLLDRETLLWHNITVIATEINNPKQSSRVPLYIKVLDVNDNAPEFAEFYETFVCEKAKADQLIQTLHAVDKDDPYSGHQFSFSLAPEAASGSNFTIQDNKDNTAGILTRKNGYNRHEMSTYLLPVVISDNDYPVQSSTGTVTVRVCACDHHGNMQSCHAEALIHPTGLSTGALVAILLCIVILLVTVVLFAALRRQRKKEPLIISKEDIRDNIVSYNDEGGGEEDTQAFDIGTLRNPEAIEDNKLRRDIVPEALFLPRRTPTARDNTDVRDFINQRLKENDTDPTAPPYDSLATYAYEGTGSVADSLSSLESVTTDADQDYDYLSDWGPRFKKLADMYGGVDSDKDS
Description: flow cytometry; 293α cells transfected with full-length hCDH6 (open line) against untransfected 293α cells (shaded); APC anti-human IgG goat F(ab')2; antibody concentration not given.

Assay [2] deals with T2, EC5 deletion mutant of human CDH6, on cells (human, UniProt P55285 54-790).
T2 construct: in p3×FLAG-CMV-9; also called EC5-deleted hCDH6
T2 sequence: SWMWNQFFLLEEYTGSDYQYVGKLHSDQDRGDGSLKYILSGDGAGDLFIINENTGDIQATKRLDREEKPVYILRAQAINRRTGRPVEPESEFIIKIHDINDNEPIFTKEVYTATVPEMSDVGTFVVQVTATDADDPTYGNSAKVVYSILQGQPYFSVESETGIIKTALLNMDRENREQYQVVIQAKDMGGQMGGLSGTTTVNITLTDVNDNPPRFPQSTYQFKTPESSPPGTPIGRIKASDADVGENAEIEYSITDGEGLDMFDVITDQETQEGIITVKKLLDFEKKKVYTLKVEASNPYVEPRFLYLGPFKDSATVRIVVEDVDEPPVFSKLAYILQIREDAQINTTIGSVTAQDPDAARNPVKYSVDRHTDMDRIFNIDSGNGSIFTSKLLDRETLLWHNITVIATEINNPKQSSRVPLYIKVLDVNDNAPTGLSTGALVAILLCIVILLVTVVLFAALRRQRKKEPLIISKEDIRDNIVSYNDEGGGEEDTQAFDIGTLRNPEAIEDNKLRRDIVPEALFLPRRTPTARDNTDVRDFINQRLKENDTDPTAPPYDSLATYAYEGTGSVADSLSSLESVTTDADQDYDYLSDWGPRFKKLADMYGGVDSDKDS
Nature of the assay: flow cytometry; 293α cells transfected with EC5-deleted hCDH6 (open line) against untransfected 293α cells (shaded); APC anti-human IgG goat F(ab')2; antibody concentration not given.

In assay [3] the target is T3, Recombinant Human CDH6 Fc His chimera (R&D Systems, Inc.) (human, UniProt P55285 54-615).
T3 construct: Bought reagent; also called the antigen; human CDH6 antigen; Fc part of the bought chimera not given; His tag of the bought chimera
T3 sequence: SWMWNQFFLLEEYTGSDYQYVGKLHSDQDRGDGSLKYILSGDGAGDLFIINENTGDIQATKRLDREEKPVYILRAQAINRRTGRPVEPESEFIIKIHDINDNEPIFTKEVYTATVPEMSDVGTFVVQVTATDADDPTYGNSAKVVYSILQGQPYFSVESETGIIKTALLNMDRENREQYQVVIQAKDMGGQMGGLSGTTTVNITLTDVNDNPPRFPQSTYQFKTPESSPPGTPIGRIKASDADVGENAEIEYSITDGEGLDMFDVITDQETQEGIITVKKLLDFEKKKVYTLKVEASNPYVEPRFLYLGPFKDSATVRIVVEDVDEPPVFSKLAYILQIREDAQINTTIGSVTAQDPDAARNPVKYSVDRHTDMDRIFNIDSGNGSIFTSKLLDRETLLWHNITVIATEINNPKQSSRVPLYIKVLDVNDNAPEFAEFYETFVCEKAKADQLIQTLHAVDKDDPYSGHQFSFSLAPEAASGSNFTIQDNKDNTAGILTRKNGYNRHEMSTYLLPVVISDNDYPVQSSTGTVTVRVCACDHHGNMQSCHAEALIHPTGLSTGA
Nature of the assay: SPR (Biacore T200); antigen captured by immobilized anti-His antibody, antibody as analyte 0.391 to 100 nM; steady state affinity model.

The target in another assay is T4, rat CDH6, on cells (rat, UniProt P55280 54-789).
T4 construct: also called rCDH6; NP_037059
T4 sequence: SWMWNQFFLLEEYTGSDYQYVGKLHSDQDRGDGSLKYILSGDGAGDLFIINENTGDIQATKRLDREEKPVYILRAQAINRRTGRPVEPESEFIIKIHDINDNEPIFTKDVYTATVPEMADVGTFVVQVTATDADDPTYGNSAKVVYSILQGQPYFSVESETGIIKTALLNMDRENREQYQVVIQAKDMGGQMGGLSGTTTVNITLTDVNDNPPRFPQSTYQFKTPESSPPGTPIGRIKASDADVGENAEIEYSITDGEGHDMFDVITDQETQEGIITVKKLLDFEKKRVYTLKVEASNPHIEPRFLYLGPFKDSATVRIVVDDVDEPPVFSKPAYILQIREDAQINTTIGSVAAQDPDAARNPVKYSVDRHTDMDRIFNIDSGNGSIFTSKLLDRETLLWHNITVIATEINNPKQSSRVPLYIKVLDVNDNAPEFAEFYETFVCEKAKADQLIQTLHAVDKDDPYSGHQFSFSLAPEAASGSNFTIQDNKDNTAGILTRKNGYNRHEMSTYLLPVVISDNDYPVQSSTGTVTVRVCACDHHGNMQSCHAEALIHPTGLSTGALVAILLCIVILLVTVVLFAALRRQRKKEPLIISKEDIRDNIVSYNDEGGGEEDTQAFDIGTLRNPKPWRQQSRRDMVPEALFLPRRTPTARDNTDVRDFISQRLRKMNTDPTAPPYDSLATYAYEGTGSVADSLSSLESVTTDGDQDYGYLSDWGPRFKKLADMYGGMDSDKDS
Nature of the assay: flow cytometry; 293α cells transfected with rCDH6; PE anti-human IgG Fc(gamma) goat F(ab').

The target in assay [4] is T5, EC3 deletion mutant of human CDH6, on cells (human, UniProt P55285 54-790).
T5 construct: in p3×FLAG-CMV-9; also called EC3-deleted hCDH6
T5 sequence: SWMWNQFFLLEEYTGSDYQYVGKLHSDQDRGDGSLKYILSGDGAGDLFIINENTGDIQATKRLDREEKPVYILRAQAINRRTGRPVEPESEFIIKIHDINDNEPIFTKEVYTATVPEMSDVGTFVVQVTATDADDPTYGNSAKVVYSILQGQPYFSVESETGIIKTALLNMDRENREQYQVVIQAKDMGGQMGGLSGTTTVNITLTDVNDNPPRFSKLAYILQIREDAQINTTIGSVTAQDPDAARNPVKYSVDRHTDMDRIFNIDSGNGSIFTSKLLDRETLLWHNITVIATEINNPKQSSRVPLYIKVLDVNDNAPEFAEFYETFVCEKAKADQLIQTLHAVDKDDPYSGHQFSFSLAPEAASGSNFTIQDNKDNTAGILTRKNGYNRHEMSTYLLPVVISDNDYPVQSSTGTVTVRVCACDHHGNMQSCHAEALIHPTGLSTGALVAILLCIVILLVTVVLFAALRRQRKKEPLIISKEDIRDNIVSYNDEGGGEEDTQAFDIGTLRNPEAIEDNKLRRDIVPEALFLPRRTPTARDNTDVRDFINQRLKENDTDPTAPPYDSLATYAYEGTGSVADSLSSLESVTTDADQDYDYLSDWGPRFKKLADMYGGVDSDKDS
Description: flow cytometry; 293α cells transfected with EC3-deleted hCDH6 (open line) against untransfected 293α cells (shaded); APC anti-human IgG goat F(ab')2; antibody concentration not given.

Another assay deals with T6, mouse CDH6, on cells (mouse, UniProt P97326 54-790).
T6 construct: also called mCDH6; NP_031692
T6 sequence: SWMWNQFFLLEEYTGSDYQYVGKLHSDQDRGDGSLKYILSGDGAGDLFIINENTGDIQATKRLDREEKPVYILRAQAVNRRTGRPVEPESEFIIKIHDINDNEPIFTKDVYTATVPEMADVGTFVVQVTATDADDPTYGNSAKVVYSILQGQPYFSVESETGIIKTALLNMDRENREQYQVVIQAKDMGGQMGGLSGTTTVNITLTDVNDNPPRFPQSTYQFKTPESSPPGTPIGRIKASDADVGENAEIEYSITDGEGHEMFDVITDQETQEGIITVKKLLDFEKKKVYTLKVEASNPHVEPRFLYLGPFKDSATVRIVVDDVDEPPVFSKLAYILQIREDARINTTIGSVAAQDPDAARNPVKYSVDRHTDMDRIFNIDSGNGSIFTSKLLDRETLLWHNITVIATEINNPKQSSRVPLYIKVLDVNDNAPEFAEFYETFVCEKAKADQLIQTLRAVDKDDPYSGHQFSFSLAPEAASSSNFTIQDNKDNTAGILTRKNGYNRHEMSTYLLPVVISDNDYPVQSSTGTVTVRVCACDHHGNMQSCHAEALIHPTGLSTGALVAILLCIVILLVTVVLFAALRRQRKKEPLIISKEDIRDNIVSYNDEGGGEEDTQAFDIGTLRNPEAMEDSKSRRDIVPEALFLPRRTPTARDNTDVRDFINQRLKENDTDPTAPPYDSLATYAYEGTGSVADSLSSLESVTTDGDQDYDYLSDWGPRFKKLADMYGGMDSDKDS
Description: flow cytometry; 293α cells transfected with mCDH6; PE anti-human IgG Fc(gamma) goat F(ab').

B1: anti-CDH6 antibody NOV0712 (antibody, human IgG1, kappa, V domains shown)
VH: QVQLLESGGGLVQPGGSLRLSCAASGFTFSSHGMHWVRQAPGKGLEWVSVISGSGSNTGYADSVKGRFTISRDNSKNTLYLQMNSLRAEDTAVYYCARQWGSYAFDSWGQGTLVTVSS
VL: DIQMTQSPSSLSASVGDRVTITCRASQSISSYLNWYQQKPGKAPKLLIYAVSTLQSGVPSRFSGSGSGTDFTLTISSLQPEDFATYYCQQSGTFPPTTFGQGTKVEIKR
notes: Made after WO 2016/024195; also called NOV0712 antibody
Turning to B1, the values for the binding result in assay [1] and in assay [2] were “binds” and “no binding”, respectively.

B2: humanized anti-CDH6 antibody H04L02 (antibody, human IgG1, kappa, V domains shown)
VH: QVQLVQSGAEVKKPGASVKVSCKASGYTFTRNFMHWIRQAPGQGLEWMGWIYPGDGETEYAQKFQGRVTLTADRSTSTAYMELSSLRSEDTAVYYCARGVYGGFAGGYFDFWGQGTLVTVSS
VL: DIQMTQSPSSLSASVGDRVTITCKASQNIYKNLAWYQQKPGKAPKLLIYDANTLQTGVPSRFSGSGSGSDFTLTISSLQPEDFATYFCQQYYSGWAFGQGTKVEIKR
notes: hH04 heavy chain and hL02 light chain, human IgG1 / kappa; also called H04L02 antibody
On to B2, for which the Kd in assay [3] is 1.1 nM. Further, the binding result in the assay with rat CDH6, on cells is “no binding (tested: about 4, unit not printed on the axis)”; in assay [4], “no binding”; in the assay with mouse CDH6, on cells, “no binding (tested: about 4, unit not printed on the axis)”.
